Test system: whole blood
Test: Varying concentrations assay of hemostatic agent in the microfluidic hemostasis device (coagulation time at the vascular injury site)
Assay type: cell-based
From the text: Biomolecules such as tissue factor (TF) can be used as a surrogate for hemostatic agents. TF is the primary cellular initiator of blood coagulation via the extrinsic pathway. After vessel injury, the TF:VIIa complex activates the coagulation protease cascade, which leads to fibrin deposition and activation of platelets (see FIGS. 7-8). TF expression by nonvascular cells plays an essential role in hemostasis by activating blood coagulation. In contrast, TF expression by vascular cells induces intravascular thrombosis. […] TF can be allowed to adhere to the surface of the channels by incubating at 37° C. and 5% CO2. Saline wash can be initiated to wash off any residual TF.
In order to mimic these conditions observed, TNF-α at a concentration of 10 μg/ml can be injected near the wound site of the tissue channel (e.g., outer channel) from the top inlet of the device. It should be noted that endothelial cells cultured in the vascular channel (e.g., central channel) can grow near the wound site opening, and also into the tissue area. Injection of TNF-α can activate the endothelial cells adjacent to the injection site to start expressing TF. At about 8 hour after activation, hemostasis restoration experiments can be initiated.
Whole blood can be kept anticoagulated using corn trypsin inhibitor (CTI). […] The time taken to completely repair (block) the opening can be recorded (FIG. 8). […]

B1: Tissue factor: primary cellular initiator of blood coagulation via the extrinsic pathway, used as a surrogate for hemostatic agents (protein, UniProt P13726 33-295, looked up)
Tissue factor: SGTTNTVAAYNLTWKSTNFKTILEWEPKPVNQVYTVQISTKSGDWKSKCFYTTDTECDLTDEIVKDVKQTYLARVFSYPAGNVESTGSAGEPLYENSPEFTPYLETNLGQPTIQSFEQVGTKVNVTVEDERTLVRRNNTFLSLRDVFGKDLIYTLYYWKSSSSGKKTAKTNTNEFLIDVDKGENYCFSVQAVIPSRTVNRKSTDSPVECMGQEKGEFREIFYIIGAVVFVVIILVIILAISLHKCRKAGVGQSWKENSPLNVS
B1 was tested, and the “time to coagulate (coagulation time of the whole blood at the vascular injury site)” value (Tissue factor at higher concentration of 10 μg/ml (extreme dose scenario)) was “less than 5 minutes” and the “time to coagulate (coagulation time of the whole blood at the vascular injury site)” value (Tissue factor coated at 10 ng/ml in the tissue channel) was ≥ 5 min.

Reference: patent publication US20160161469A1, “SYNTHETIC MICROFLUIDIC SYSTEMS FOR WOUND HEALING” (CFD Research Corporation, priority 2013, published 2016)
